biological target: human CD28 (human, UniProt P10747 19-220); assay: cell-based or functional assay

Binder	MLR assay (EC50)	Luciferase assay (EC50)
1h-37 (other) VH: EVQLLESGGGLVQPGGSLRLSCAASGFTFGTYKMVWVRQAPGKGLEWVSSIGPGGLDTYYADSVKGRFTISRDNSKNTLYLQMNSLRAEDTAVYYCAKSWMTLPITGFDYRGQGTLVTVSS	1900 nM	
1h-18-1 (other) VL: DIQMTQSPSSLSASVGDRVTITCRASQYIGTSLNWYQQKPGKAPKLLTYQASFLQSGVPSRFSGSGSGTDFTLTISSLQPEDFATYYCQQLALRPMTFGQGTKVEIKR		5400 nM
1h-18-3 (other) VL: DIQMTQSPSSLSASVGDRVTITCRASQYIGTSLNWYQQKPGKAPKLLTYRASLLQSGVPSRFSGSGSGTDFTLTISSLQPEDFATYYCQQLALRPMTFGQGTKVEIKR		1000 nM
1h-18-5 (other) VL: DIQMTQSPSSLSASVGDRVTITCRASQYIGTSLNWYQQKPGKAPKLLTYQASLLQSGVPSRFSGSGSGTDFTLTISSLQPEDFATYYCQQLAMRPMTFGQGTKVEIKW		> 7000 nM
1h-93 (other) VH: EVQLLESGGGLVQPGGSLRLSCAASGFTFPLYEMAWVRQAPGKGLEWVSSIMSNGIRTYYADSVKGRFTISRDNSKNTLYLQMNSLRAEDTAVYYCAKRKSSSSRTVFDYWGQGTLVTVSS	3200 nM	2800 nM
1h-93-2 (other) VH: EVQLLESGGGLVQPGGSLRLSCAASGFTFPLYEMAWVRQAPGKGLEWVSSIMSNGIRTYYADSVKGRFTISRDNSKNTLYLQMNSLRAEDTAVYYCAKRESSSSRTVFDYWGQGTLVTVSS	830 nM	383 nM
1h-239-837 (other) VL: DIQMTQSPSSLSASVGDRVTITCRASQSIYPFLEWYQQKPGKAPKLLIYFTSRLASGVPSRFSGSGSGTDFTLTISSLQPEDFATYYCLQNVTNPATFSQGTKVEIKR	14 nM	9 nM
1h-239-849 (other) VL: DIQMTQSPSSLSASVGDRVTITCRASQSIYPFLEWYQQKPGKAPKLLIYFTSKLTRGVPSRFSGSGSGADFTLTISNLQPEDFATYYCLQNVTNPATFSQGTKVEIKR	10 nM	13 nM
1h-239-9 (other) VL: DIQMTQSPSSLSASVGDRVTITCRASQSIYPFLEWYQQKPGKAPKLLIYFTSRLQSGVPSRFSGSGSGTDFTLTISSLQPEDFATYYCLQNVTNPATFGQGTKVEIKR		27 nM
1h-239-847 (other) VL: DIQMTQSPSSLSASVGDRVTITCRASQSIYPFLEWYQQKPGKAPKLLIYFTSRLAYGVPSRFSGSGSGTDFTLTISSLQPEDFATYYCLQNVTNPATFSQGTKVEIRR	5 nM	8 nM
1h-239-856 (other) VL: DIQMTQSPSSLSASVGDRVTITCRASQSIYPFLEWYQQKPGKAPKLLIYFTSRLRHGVPSRFSGSGSGTDFTLTISSLQPEDFATYYCLQNVTNPATFSQGTKVEIKR	1 nM	3 nM
1h-239-869 (other) VL: DIQMTQSPSSLSASVGDRVTITCRASQSIYPFLEWYQQKPGKAPKLLIYFTSRLQSGVPSRFSGSGSGTDFTLTISSLQPEDFATYYCLQNVQMPATFSQGTKVEIKR	2 nM	
1h-239-871 (other) VL: DIQMTQSPSSLSASVGDRVTITCRASQSIYPFLEWYQQKPGKAPKLLIYFTSRLQSGVPSRFSGSGSGTDFTLTISSLQPEDFATYYCLQNVANPATFSQGTKVEIKR	3 nM	
1h-239-859 (other) VL: DIQMTQSPSSLSASVGDRVTITCRASQSIYPFLEWYQQKPGKAPKLLIYFSSMLASGVPSRFSGSGSGTDFTLTISSLQPEDFATYYCLQNVTNPATFSQGTKVEIKR	4 nM	5 nM
1h-99-2112 (other) VH: EVQLLESGGGLVQPGGSLRLSCAASGFTFKDKNMSWARQAPGKGLEWVSWIEAPGVQTFYADSVRGRFTISRDNSKNTLYLQMNSLRAEDTAVYYCARSPFGPLYGFDYRGQGTLVTVSS	2 nM	3 nM
1h-99-2113 (other) VH: EVQLLESGGGLVQPGGSLRLSCAASGFTFKDKNMSWARQAPGKGLEWVSWIEASGVQTFYADSVKGRFTISRDNSKNTLYLQMNSLRAEDTAVYYCAKSPFGPLYGFDYRGQGTLVTVSS	3 nM	5 nM
1h-99 (other) VH: EVQLLESGGGLVQPGGSLRLSCAASGFTFDSANMTWVRQAPGKGLEWVSWIDDTGTQTYYADSVKGRFTISRDNSKNTLYLQMNSLRAEDTAVYYCAKSPFGPLYGFDYWGQGTLVTVSS	2200 nM	
1h-99-201 (other) VH: EVQLLESGGGLVQPGGSLRLSCAASGFTFHRWNMSWARQAPGKGLEWVSWIEDTGTQTFYADSVKGRFTISRDNSKNTLYLQMNSLRAEDTAVYYCAKSPFGPLYGFDYRGQGTLVTVSS	18 nM	14 nM
1h-99-1 (other) VH: EVQLLESGGGLVQPGGSLRLSCAASGFTFDSANMTWVRQAPGKGLEWVSWIEDTGTQTFYADSVRGRFTISRDNFKNTLYLQMNSLRAEDTAVYYCAKSPFGPLYGFDYRGQGTLVTVSS	19 nM	15 nM
1h-99-203 (other) VH: EVQLLESGGGLVQPGGSLRLSCAASGFTFYKANMSWARQAPGKGLEWVSWIEDTGTQTFYADSVKGRFTISRDNSKNTLYLQMNSLRAEDTAVYYCAKSPFGPLYGFDYRGQGTLVTVSS	10 nM	8 nM

Other lines, results leading:

MLR assay (EC50)	Luciferase assay (EC50)	Binder
	1400 nM	1h-18-6 (other) VL: DIQMTQSPSSLSASVGDRVTITCRASQYIGTSLNWYQQKPGKAPKLLIYQASLLQSGVPSRFSGSGYGTDFTLTISSLQPEDFATYYCQQLALRPMTFGQGTKVEIKR
1200 nM	176 nM	1h-93-204 (other) VH: EVQLLESGGGLVQPGGSLRLSCAASGFTFYTAEMAWVRQAPGKGLEWVSSIMSNGIRTYYADSVKGRFTISRDNSKNTLYLQMNSLRAEDTAVYYCARRESSSSRTVFDYWGQGTLVTVSS
18 nM	182 nM	1h-93-201 (other) VH: EVQLLESGGGLVQPGGSLRLSCAASGFTFSVSEMAWVRQAPGKGLEWVSSIMSNGIRTYYADSVKGRFTISRDNSKNTLYLQMNSLRAEDTAVYYCARRESSSSRTVFDYWGQGTLVTVSS
545 nM	493 nM	1h-93-1 (other) VH: EVQLLESGGGLVQPGGSLRLSCAASGFTFPLYEMAWVRQAPGKGLEWVSSIMSNGTRTYYADSVKGRFTISRDNSKNTLYLQMNSLRAEDTAVYYCAKRESSSSRTVFDYWGQGTLVTVSS
7 nM	8 nM	1h-239-833 (other) VL: DIQMTQSPSSLSASVGDRVTITCRASQSIYPFLEWYQQKPGKAPKLLIYFTSRLRAGVPSRFSGSGSGTDFTLTISSLQPEDFATYYCLQNVTNPATFSQGTKVEIKR
4 nM	5 nM	1h-239-851 (other) VL: DIQMTQSPSSLSASVGDRVTITCRASRNIYPFLEWYQQKPGKAPKLLIYFTSRLQSGVPSRFSGSGSGTDFTLTISSLQPEDFATYYCLQNVTNPATFSQGTKVEIKR
10 nM	9 nM	1h-239-840 (other) VL: DIQMTQSPSSLSASVGDRVTITCRASQSIYPFLEWYQQKPGKAPKLLIYFASRLASGVPSRFSGSGSGTDFTLTISSLQPEDFATYYCLQNVTNPATFSQGTKVEIKR
3 nM		1h-239-870 (other) VL: DIQMTQSPSSLSASVGDRVTITCRASQSIYPFLEWYQQKPGKAPKLLIYFTSRLQSGVPSRFSGSGSGTDFTLTISSLQPEDFATYYCLQNVMMPATFSQGTKVEIKR
3 nM	4 nM	1h-239-838 (other) VL: DIQMTQSPSSLSASVGDRVTITCQASQSIYPFLEWYQQKPGKAPKLLIYFTSRLARGVPSRFSGSGSGTDFTLTISSLQPEDFATYYCLQNVTNPATFSQGTRVEIKR
1 nM	3 nM	1h-239-857 (other) VL: DIQMTQSPSSLSASVGDRVTITCRASQSIYPFLEWYQQKPGKAPKLLIYFTSRLAAGVPSRFSGSGSGTDFTLTISSLQPEDFATYYCLQNVTNPAAFSQGTKVEIKR
	1200 nM	1h-30 (other) VH: EVQLLESGGGLVQPGGSLRLSCAASGFTFAHYHMGWVRQAPGKGLEWVSWIPADGLRTYYADSVKGRFTISRDNSKNTLYLQMNSLRAEDTAVYYCAKYEGAFDYWGQGTLVTVSS
	800 nM	1h-31 (other) VL: DIQMTQSPSSLSASVGDRVTITCRASQSIGYSLAWYQQKPGKAPKLLIYWVSSLQSGVPSRFSGSGSGTDFTLTISSLQPEDFATYYCQQTQRTPFTFGQGTKVEIKR
	> 7000 nM	1h-29 (other) VH: EVQLLESGGGLVQPGGSLRLSCAASGFTFEDYDMNWVRQAPGKGLEWVSHIDRGGTLTYYADSVKGRFTISRDNSKNTLYLQMNSLRAEDTAVYYCAKSTLMGFDYWGQGTLVTVSS

— patent publication US20130109846A1 (published 2013)
